Results reported in a protein production outcome set (Wang et al. 2014).

Assay: label from the status in PepcDB records

Q: For “MPNPRRIVFGDVHGHFDALTALFEAIAPNERDGVYFVGDLIDRGPESAKVVDFVMENKYHCLLGNHEQMMLDAVGGFNFSPQLLHAWIYSGGKSTLESYEHQIPQSHVDWMRNLPLYLDLGDVWLVHAGVDPRLPIEEQGEAQFCWIRDEFHRYPYPYFANKLIITGHTITFTFANVEPGKLVSGPGWLDIDTGAYHPKSGWLTALELNNQEVYQAHIFTNEVRRLPLEDAVVPLPPQNLHRLEHHHHHH”, which protein production is on record?
A: failed

Q: Which protein production does the source give for “MPNYINYPSWLHPEVIQGIPITWYSLSYILIILISYKFIWYQIQSDNVDIKKEDYEIFMFSLVLGAILGGRLASTLVYDKSGIYYSNPWLILLPFDQHWNFTGFRGMAIHGGFLGAIIAPLITINTNLKNTNVQKYFLKLTDYGSIAFSSGYILGRLANFANAELYGRVMKGGIIFPNAEPFDTNIPGVKEFASSVGLEISPHDLLINLPRIPSQLIEGFFEGPVTFLLLWFLFKKIKKYDGFIFGVYVMLYAFFRFFIEYLREPDKELGFIITYKPITSLSEFSFLNISMGQILSLTLMLSGLIWIIVTKKIADKKIKNNTNLAYKN” here?
A: failed

Q: Which protein production does the source give for “MPPAPVFLLLAAGASRRMRGADKLMEPVAGEPLLRLQARRGIAAGLAVLVTLPPDRPERWAALEGLAVQRLPVPDAAEGLAASIRAGVAAAPPDAAVLLLLADLPEIEATDLAQMAALHREAPKALLRATTADGRPGHPILFPADLRPELQALKGDQGARRILERAAGRLRLVPLAGTRAVTDLDTPEDWALWRARTGHLEHHHHHH” here?
A: failed

Q: With “MPPHASQVSVVVIGYDDAAHVTDAVRSALAQGPAVREVIAVDDCSSDGSPGLLDALAVEDTRVRVLRREVNSGGCGTPRNDGIDAATAPYTMFLDSDDMLPPGAVEALLAAADRHGAQVAAGLCVRRELPSGREVPWQPELYTEPALVPHPARLRRLVHDTLCVNKLYRTDFLREHAIRFPDGRFPYEDFVFSARVLAAGPRMALVPDTVYVWHVRRSAERLSISLDRAGIDNWQARMAAAAQAYDILLGAGEKRLARAARAKFLDHELRMYTRELDLRGTEYRREWWTLTRAYLSAFDAAEFALAPAPGRVIARVVLAAEEPRDLPRLKELAARPARLHPPYARAADGTPVWSADLPQVPLDHVLVRPMHLLPVAVDAELRPRARGTRLRLRLHELYGRVADAGPASVNLEFVHREGGRVGTAATAPLLADPEFDTWSAEVPVDLAALGSGTWDLRLTLRFHDGTSRDTTAHAVAGPGLLRRGVVPSGRHGVLLVQPYATHSGALALRVATGIQGVTSVMGRRLRRLLHW” as the sequence, how does the protein production read?
A: failed

Q: Which protein production does the source give for “MPPLCPLPTGGKRTNLHQYRHATRAMTDRLSPERRRYLMQQVRSKNTRPEKAVRSLLHSIGYRFRLHRKDLPGTPDIVFPSRRLVLFVHGCFWHGHGCRIGQLPKSRLDYWSPKIEANRARDQRKEAALAAEGWRVAVVWQCELSDLGALEARLRNILDPS” here?
A: failed

Q: With “MPPPLRVLILEDSEDDYFLLVRALKREFDIVPERVDSEESLRANLCEKRWDIVLSDYFMPQFDALAALTLIQSMNLDIPFIIVSGKIGEFEAVKAMKAGAHDYIMKGDYTRLIPAIRRELREAVIRQEQRRTDHELREQLHFRQALIDAIPAPIYFMDTTGIFLGCNKAFEAFSGHTQDEIVGKTIYDLMPPSLAKHTDSADRELFEHGGIQIYESVISFADGALHDVIFYKATFTTTEKNIGGLVGTILDITERKQTEERLRYMSTHDTLTGLYNRAYFQEEMERLEQGRQFPVSVVVFDVDRLKYVNDSQGHAAGDELLIRAALVLKGAFRAEDVVARIGGDEFAVLLPSADADVVQEALRRVIGKIEQSQTEDHPVPLSISFGAATASKGDRLEEVLKLADRRMYENKFKKCCVLPA” as the sequence, how does the protein production read?
A: failed

Q: Which protein production does the source give for “MPQDVMTANHVSPSNDAAAPSALDLARNQRLSLMDLLSVSEALNAAGQQAAAAELYKTWVAFNDNNPTIHLAYFNYAVMLNQLGDRAGAVQAFRACLKANPEFAPGHINLGRALEDAGLIGHAVEQWSHYAEVTKNVDAETIGHRHMTLQNMGRVLEGAGKLEEAETALLQAFELRPELPEAGQHWASLRQRQCKWPVLAPSNHISPRKMLDAMSSLTLSCYADDPMFQLAKAYRLSKTLIGARPDLSRFPRRSPKQKSGTGQRLRVGYLSSDLRDHAVGFALCEVLELHDKDSLEVFAYYCGNVRGTDSTQERIKAAVHCWRDIHGVDDATAASQIIADEIDILIDVNGYTKDARAKIFAYRPAPVIVSFCGYPGSMGSPFHQYLISDGYMIPPENEIYYSEKVLRIACDQPLDRKRPVAARPSRADVGLPEDAFVYASFNGMQKITENCFARWMTILSETPGSLLWLLTGDDDVNQRLRDLAEKSGVASERLVFAPKAQNPQHIARIGLADLFLDTFPYGAHSTASDAITSGLPVLTMYGKTFAARFCGSIVTAAGVPEMICSSPEDYVARAIGFERDRQSLLEVRESIARQRETSVLRDIPALARRLEELFWQMQGECERGETPVPDLSNLDIYYEAGAEALLENIEFEDEQSYRERYLKKLRQWHDYAPIPYDRRLWQNPDN” here?
A: failed

Q: Which protein production does the source give for “MPQPRRSTGSKLTYRPVGYVNAMSEQDEVPSEDRRKYEFRKVIEELKDYEGSGTQLVTIYIPPDKQISDVVAHVTQEHSEASNIKSKQTRTNVQDALTSIKDRLRYYDTFPPDNGMVVFSGAVDSGGGRTDMVTEVLESPPQPIESFRYHCDSAFLTEPLAEMLGDKGLYGLIVLDRRESNVGWLKGKRVQPVKSAESLVPGKQRKGGQSAQRFARLRLEAIDNFYQEVAGMADDLFVPKRHEIDGILVGGPSPTKDEFLDGDYLHHELQDKVLGKFDVSYTDESGLSDLVDAGQAALAEADLMDDKSDMEEFFEELNGGKLATYGFEQTRRNLIMGSVDRLLVSEDLREDVVIYECPNDHEEYETIDRRNTSPEHTCSDCGEEATEVDREDAIDHLMSIADQRGTETHFISTDFEKGEQLLTAFGGYAGILRYSTGV” here?
A: failed

Q: With “MPRASISDTIPMTMASIDAGSVRFTARADKRHLNPLGGVHGGFAATVLDSVTGCAIHSILEAGVGYGTVDLSVKRVKAVPEDTPLVAEGRVLHVPCAIGSQRADLMLAPPRLGRDRRCPAGLEHHHHHH” as the sequence, how does the protein production read?
A: failed

Q: Which protein production does the source give for “MPRFSTACLDWESRIVNRESLIPFAPLFPTEAEAALDVFKSLQITDLPQVYDRKLGRHRHPTFGESCEQYVFDFVSAIFGAYDEESAKRVIEEFFLLISKKNIKSTLAAGIMLTALIRNWRHNQELLILAPTQEVAGNSFNPAASMVAADPDLTILLHVNKNTKEITHTLTKAVLKIVSADSNTAAGKKAAFVLIEELWLFGKKANAAAMLQEATGGLISRPEGFVIYITTQSDEPPAGVFKEKLDYFRDVRDGKIDDPTSLGVLYEFPDPMIDNEAYLDPANWYVTNPNMGRSVRKDWLERKLLKIQSGEDEEGDTWQSFLAKHLNVEIGMRQRGNRWPGANYWERAADPELAVLDHFAALDRFLERSEVVVVGVDGGGLDDLFGLTLVGREPDEIEIPVMVNGRESLVKMKRWLTWSHAWCHRDVLKRRKKIAPVLTDFDKAGHLTIVDAALEDLASIVDIIGTVKASGLLSSVAVDPAGLGEFVDALASPEIDITQENGLLVGVPQGFALMNAIKTAERRLSNGMLRHAGGPLMPWCVANLKIEPTATAIRATKQTAGDAKIDPAMALFDAVTMMVKNPEAPIASVYAERGIRVV” here?
A: failed

Q: With “MPRLARSLPLLLGLGLAAWAGATDGPLPVPADGVKLEAPTTASPSIRLVIPAEEIERRALAEYRQIIDNAAREGALAPDSVPDLARIRAIVQRLVPHAPRWNPDAAHWQWEVNLIGAAQVNAFCMPGGKIAVFSGLLERFRLTDDELAMALGHEIAHALREHARARAGQREITNLGANVISQLFGFGNRGDAGFGEGAKMHLLAFSRAEETEADLIGMDIAARAGFDPRAALTLWQKMGSIGGAEQKQFLSTHPSGRSRMTVLSRHLPETLPLYADALRMPMAKLPEYRSNMQYLGAAPVDNGDEAPMRPMVQQ” as the sequence, how does the protein production read?
A: failed

Q: For “MPRRDLLDLLALAAVWGGSFLFMRVAVPEFGPAALMELRVGLAALFLLPLALWRGKPALIARHWKAILVVGTLNSALPFLLYAYAAQSLGAGFLSVANAVTPVWGAVIGWLWLGDRLPRMRALGLLISLSGIIVLVWDKLDFHDGGTGPAVLAAISAPVFYGMAANWTKRYLGHVDALTNATGSMVAASLVLAPLAIIHWPEQAVSFEAWRATVLLAIVCTGAAYIVFFRLIARVGPTAAVSVTFLVPVFGVLWGVWFLDEAVTPRILAGAGVILVGTALALGLVGARRVAAAD”, which protein production is on record?
A: failed

Q: With “MPRRRVETRRVDHDPGKRTLLLSPVLPLPTMRTCALALLTILLGAPAHGQSTDGPWTIDHVLTQRSLTDVDIGPDGNRVLWVKETPDPEADETTSDVYLTYRDDPHGDSTATLQLTRTGDNRAPRWSPDGEHIAFLSSREQEDAAESSGTQIWRLDPRGGAPEVITSVEHGVQGARWLDDDRLLFTAREQNTRYEQHLEQTEDDADVIEDTTLFRPVRLFTVHVGTGEVTRVTNNDHQIGEFAPSPNGSRVVYSLSDSPITADARNQPHQFLLNLNTGATTEIFDEQYVDPSNFQWTADGAGFYATDSYSSDPEHEGAGITKLYHYDLAARDYQEVPLEWGDKGVGYGGYTVVDGGLHVQLADGPTFEPRFYRKTSDGWAPAEVADERLEHASAFTAGPDGETVVFSHSTADTPPSYRVGTYREGALQRDETLTTLNENLDDLPIPRAEVVRWTGANGETVNGILHYPLDYDPDRAYPMMTVLHGGPSGVDLDAWSLGWTVYAPLLAQRDAFVFRPNYHGSGHHGLDFVESIKGKYYELEVPDIVSGIDSLAAAGVVDKDSLGVMGWSNGAILTTQLTIEHPELFQVAAPGAGDVNWTSDYGNCAFGVRFDRSYFKGAPWTYTEHYIEKSPLFEMPKVQTPTLIHHGTEDRAVPYEQGWEYYRALQQIGNAPVRFLSYPGEPHGLRQLSHQRRKVAEDLKWIDTYLFGETSMQERVSERLLADDAPLSLLETAEAPARTDGHYGVRANGTLVPETVTLGDTLTVGRFEVTRAQFRAYDADFEVPSGTAEYPAHGLAADRAQAYVDWLSEQTGRDYRLPTAAELAALKAARAGPSENTPAYWAGFTPTPDEYRRLRARLAQHPTEALLMPVGSRPAGHGPNGGGPLIYDVDGNVAEWARTADGIEAQNASALTLKDPKAETAPTPPRRVTGLRVVLDR” as the sequence, how does the protein production read?
A: failed

Q: With “MPSDGLPKNLEPLAAGDPATIGPYVLVGRLGSGGMGTVYLGRAPEKGTHVAIKVIRPELAFDEATRARFRDEMENARKVASFCTAKVLDHGTFQNRPYMVTEYIAGTALAEHIAEHGPLDSGTLHGFALGVAAALAAIHKAGLVHRDLKPANVLLSLSGPRVIDFGIARALNTSTSHTQTGIVMGSPGWMAPEQLLEEKVTTKADIFAWGCLVAFAGNGRHPFGNGDAMTLGKRMLFAEPDIGNLDPPLDRLVARALAKDPDQRPTAQELLLELAGGTDSNDTNDVVSHALHQSWRPNFPPMPPGYPPPSPQAHSGMPGPQAQAQAPGQTTIAPQPYAHPQQGGPGPMPPQAAGPQGGPQGGPQSPPMPQRPGPQASHHTGQIPVVPPTTGRQPPRSPAAQGSSGGPQARPYVPPNTLPPHRPLRPDSSRSRLLIVFAVLGAVLLAVVLVFGLVFFQDWFSSTSDTNPPGQGQEQQSSAPKEDPDDESDKSDTQAADPQAGESLRFDLLDWYCGNQVLDRPLIVNGGEYCVAEIEAHNSANYPVKFRHDLQILAHASGEQTKADAPLHGEGADPLWAGPIQPGDTVRGYLVFIVHSELTPEVLILRSTVDSPGQQIEIPSGQPA” as the sequence, how does the protein production read?
A: failed

Q: With “MPSDNTYIRFRQQQRDPLHVNSPVSAGNISGVQGSGSRHPPSPPTPTTQPSVNHSDAQAERLNNLTLDELLDSPGRAGLTRLDPKRPLATLWFDDDSTVAATVRSIFERDFKEPHANWSQTSKATIDRWYETFAQVYNWDRSINKRVRVEFEAKLNSRMSDQVSRWKGNWKEKGDEAKPKWIDPEGIYKHCSGQTSYKARARKRCEKTGETTPDFLELLDETHRKADGTFIDGKSEEIYKKVTSRIEEEESHMCSGDNPESTGSCGLSVHAKNKIFVEVAPRKKGRIYGVGSLQFEAFSAHSGSTLPSDDPVILSQKLAAAEACIQSQAEKINSFDILFDYLADKDPALAAILRRGSSTQTGPASANEAPVATAPEQQVANEETAAATLANLATGSSPSSIF” as the sequence, how does the protein production read?
A: failed

Q: Which protein production does the source give for “MPSFDIVSEITLHEVRNAVENANRVLSTRYDFRGVEAVIELNEKNETIKITTESDFQLEQLIEILIGSCIKRGIEHSSLDIPAESEHHGKLYSKEIKLKQGIETEMAKKITKLVKDSKIKVQTQIQGEQVRVTGKSRDDLQAVIQLVKSAELGQPFQFNNFRD” here?
A: not failed
